Reference: publication PMC11467371, “Structure‐based design of antibodies targeting the EBNA1 DNA‐binding domain to block Epstein–Barr virus latent infection and tumor growth”

Biological target: EBNA1 DBD (Epstein-Barr virus (strain B95.8), UniProt P03211 461-607)
Test: fluorescence polarization; EC50; 1 mM MgCl2; FP: 200 mM NaCl, 20 mM Tris-HCl pH 7.5, 1 mM MgCl2, 0.01% CHAPS; 20 nM FAM probe stock mixed 1:1 with 0.31-20 µM protein, 20 min; temperature not stated
Settings: protein: recombinant, tags: N-terminal 6xHis-SUMO, removed by ULP1, chain copies: 2, label: 5'-FAM, called 18-bp

EBNA1 DBD, sequence (P03211 461-607): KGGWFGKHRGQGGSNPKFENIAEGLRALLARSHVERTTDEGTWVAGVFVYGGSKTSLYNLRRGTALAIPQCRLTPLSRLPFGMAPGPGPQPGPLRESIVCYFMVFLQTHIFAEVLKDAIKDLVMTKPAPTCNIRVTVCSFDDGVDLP

| Binder | apparent K (half saturation) (blunt, one self-complementary strand printed, 2 copies) [nM] | apparent K (half saturation) (only the FAM strand is printed, complement implied) [nM] |
| --- | --- | --- |
| DNA01 (dsDNA) DNA 1: GGGTAGCATATGCTACCC DNA 2: GGGTAGCATATGCTACCC | 2130 |  |
| DNA02 (dsDNA) DNA 1: GGGTAACCACTGTTACCC DNA 2: GGGTAACAGTGGTTACCC |  | 1540 |
